This assay has as its target Elk-1 ETS domain (Elk-ets), recombinant. Briefly: SEC.

The term stoichiometry N denotes a count of units in the complex or per binding partner. For the substance “Elk-1 ETS domain (Elk-ets), recombinant (domain or fragment)”, the stoichiometry N was determined as 2.

Source of the values: PMC3159454.
